Experimental data taken from US20100098681A1 (Janssen / Centocor, published 2010).
Read-outs that look alike come from different tables or passages of the source.

B1: P190-MMB construct 4314 (Fc fusion)
chain: GGDPCTWEVWGRECLQGGGSCPPCPAPEAAGGPSVFLFPPKPKDTLMISRTPEVTCVVVDVSQEDPEVQFNWYVDGVEVHNAKTKPREEQFNSTYRVVSVLTVLHQDWLNGKEYKCKVSNKGLPSSIEKTISKAKGQPREPQVYTLPPSQEEMTKNQVSLTCLVKGFYPSDIAVEWESNGQPENNYKTTPPVLDSDGSFFLYSRLTVDKSRWQEGNVFSCSVMHEALHNHYTQKSLSLSLGK
notes: GG, P190, Flex, human IgG4 hinge-CH2-CH3 with two Leu to Ala changes
B2: P179 phage (S19, pIX) (peptide)
chain: GGGGPCVLIRDYYLLCLEGGGSGGSGG
notes: pIX phagemid display; also called PP179; not shown: M13 phage coat protein pIX (MSVL...)
B3: P175 phage (S15, pIX) (peptide)
chain: GGGLPDDSLPELICKVRGGGGSGGSGG
notes: pIX phagemid display; also called PP175; not shown: M13 phage coat protein pIX (MSVL...)
B4: P190 phage, pIX display (190-phagemid) (peptide)
chain: GGGDPCTWEVWGRECLQGGGSGGSGG
notes: pIX phagemid display, on average one peptide per phage particle; also called PHPEP190; pIX-190; not shown: M13 phage coat protein pIX (MSVL...)
B5: SEQ ID NO: 10 (S15 hit, pIX phage) (peptide)
chain: GGGYRLFVDESIFFCTRLGGGSGGSGG
notes: pIX phagemid display; not shown: M13 phage coat protein pIX (MSVL...)
B6: SEQ ID NO: 11 (S15 hit, pIX phage) (peptide)
chain: GGGELGLPTLLCWPTDTLGGGSGGSGG
notes: as for B5
B7: SEQ ID NO: 12 (S15 hit, pIX phage) (peptide)
chain: GGGVSGILPILVCHPAATGGGSGGSGG
notes: as for B5
B8: SEQ ID NO: 14 (S15 hit, pIX phage) (peptide)
chain: GGGHVSLQSLPELICVVSGGGSGGSGG
notes: as for B5
B9: SEQ ID NO: 15 (S15 hit, pIX phage) (peptide)
chain: GGGNWFSLPTLLCFPLNPGGGSGGSGG
notes: as for B5
B10: SEQ ID NO: 16 (S15 hit, pIX phage) (peptide)
chain: GGGSTITSLPTLQCWPILGGGSGGSGG
notes: as for B5
B11: SEQ ID NO: 17 (S15 hit, pIX phage) (peptide)
chain: GGGPIDDESLPVLYCVTSGGGSGGSGG
notes: as for B5
B12: SEQ ID NO: 18 (S15 hit, pIX phage) (peptide)
chain: GGGPIFSSLPVLYCTSQLGGGSGGSGG
notes: as for B5
B13: SEQ ID NO: 19 (S15 hit, pIX phage) (peptide)
chain: GGGGADTLPDLLCWESSLGGGSGGSGG
notes: as for B5
B14: SEQ ID NO: 20 (S15 hit, pIX phage) (peptide)
chain: GGGTVFTLPELVCVVAGTGGGSGGSGG
notes: as for B5
B15: SEQ ID NO: 21 (S15 hit, pIX phage) (peptide)
chain: GGGLPDLICAVDSGTSGAGGGSGGSGG
notes: as for B5
B16: SEQ ID NO: 23 (S18 hit, pIX phage) (peptide)
chain: GGGAGCIAFVDVVYCARGGGSGGSGG
notes: as for B5
B17: SEQ ID NO: 24 (S18 hit, pIX phage) (peptide)
chain: GGGAKCIAFGNSVYCLNGGGSGGSGG
notes: as for B5
B18: SEQ ID NO: 25 (S18 hit, pIX phage) (peptide)
chain: GGGRDCIIFDKTVYCVIGGGSGGSGG
notes: as for B5
B19: SEQ ID NO: 26 (S18 hit, pIX phage) (peptide)
chain: GGGKHCILFEKTVYCAKGGGSGGSGG
notes: as for B5
B20: SEQ ID NO: 27 (S18 hit, pIX phage) (peptide)
chain: GGGDSCIQFANLLYCAIGGGSGGSGG
notes: as for B5
B21: SEQ ID NO: 28 (S18 hit, pIX phage) (peptide)
chain: GGGTDCIRFGVLWYCLVGGGSGGSGG
notes: as for B5
B22: SEQ ID NO: 29 (S18 hit, pIX phage) (peptide)
chain: GGGRACITFGKVVYCEVGGGSGGSGG
notes: as for B5
B23: SEQ ID NO: 30 (S18 hit, pIX phage) (peptide)
chain: GGGAYCSFVAGDLVCQVGGGSGGSGG
notes: as for B5
B24: P173 phage (S18, pIX) (peptide)
chain: GGGTDCVIFGLETYCLRGGGSGGSGG
notes: pIX phagemid display; also called PP173; not shown: M13 phage coat protein pIX (MSVL...)
B25: SEQ ID NO: 32 (S18 hit, pIX phage) (peptide)
chain: GGGSDCVLFGSKLFCSAGGGSGGSGG
notes: as for B5
B26: SEQ ID NO: 33 (S18 hit, pIX phage) (peptide)
chain: GGGTDCVRFGETIYCIVGGGSGGSGG
notes: as for B5
B27: SEQ ID NO: 34 (S18 hit, pIX phage) (peptide)
chain: GGGYDCVSFGAVAYCPQGGGSGGSGG
notes: as for B5
B28: SEQ ID NO: 35 (S18 hit, pIX phage) (peptide)
chain: GGGRGCVVFGDNIYCIVGGGSGGSGG
notes: as for B5
B29: P180 phage (S19, pIX) (peptide)
chain: GGGMICYLVDSGNIICYKGGGSGGSGG
notes: pIX phagemid display; also called PP180; not shown: M13 phage coat protein pIX (MSVL...)
B30: SEQ ID NO: 38 (S19 hit, pIX phage) (peptide)
chain: GGGYDCMIRADGSLICWCGGGSGGSGG
notes: as for B5
B31: SEQ ID NO: 40 (S19 hit, pIX phage) (peptide)
chain: GGGAFCRLDFNQWLTCLVGGGSGGSGG
notes: as for B5
B32: SEQ ID NO: 41 (S19 hit, pIX phage) (peptide)
chain: GGGCDCREAVSASLVCRYGGGSGGSGG
notes: as for B5
B33: SEQ ID NO: 43 (S20 hit, pIX phage) (peptide)
chain: GGGPTCDSATRRVLTICADGGGSGGSGG
notes: as for B5
B34: SEQ ID NO: 44 (S20 hit, pIX phage) (peptide)
chain: GGGWMCFLEGYGASLMCQCGGGSGGSGG
notes: as for B5
B35: SEQ ID NO: 45 (S20 hit, pIX phage) (peptide)
chain: GGGDSCCSFLTDGTVVCSLGGGSGGSGG
notes: as for B5
B36: SEQ ID NO: 46 (S20 hit, pIX phage) (peptide)
chain: GGGYICTPSDIDSWYICYLGGGSGGSGG
notes: as for B5
B37: SEQ ID NO: 47 (S20 hit, pIX phage) (peptide)
chain: GGGSVCVGTAFPGWMVCGPGGGSGGSGG
notes: as for B5
B38: SEQ ID NO: 49 (S20 hit, pIX phage) (peptide)
chain: GGGLLCATTSFRDWFVCFTGGGSGGSGG
notes: as for B5
B39: P177 phage (S16, pIX) (peptide)
chain: GGGDACTMVFLWCSLGGGSGGSGG
notes: pIX phagemid display; also called PP177; not shown: M13 phage coat protein pIX (MSVL...)
B40: P178 phage (S17, pIX) (peptide)
chain: GGGRWCYFWWITICELGGGSGGSGG
notes: pIX phagemid display; also called PP178; not shown: M13 phage coat protein pIX (MSVL...)

Columns and labels:
[1] = biological target: T1, sEGFR-MMB (dimeric sEGFR mimetibody) (human); test: ELISA, luminescence; sEGFR-MMB immobilized, MMB titrated
T1 construct: Disulfide linked homodimer, expressed in 293E cells; also called sEGFR-Fc
T1 sequence (chain, as listed by the source limits assumed): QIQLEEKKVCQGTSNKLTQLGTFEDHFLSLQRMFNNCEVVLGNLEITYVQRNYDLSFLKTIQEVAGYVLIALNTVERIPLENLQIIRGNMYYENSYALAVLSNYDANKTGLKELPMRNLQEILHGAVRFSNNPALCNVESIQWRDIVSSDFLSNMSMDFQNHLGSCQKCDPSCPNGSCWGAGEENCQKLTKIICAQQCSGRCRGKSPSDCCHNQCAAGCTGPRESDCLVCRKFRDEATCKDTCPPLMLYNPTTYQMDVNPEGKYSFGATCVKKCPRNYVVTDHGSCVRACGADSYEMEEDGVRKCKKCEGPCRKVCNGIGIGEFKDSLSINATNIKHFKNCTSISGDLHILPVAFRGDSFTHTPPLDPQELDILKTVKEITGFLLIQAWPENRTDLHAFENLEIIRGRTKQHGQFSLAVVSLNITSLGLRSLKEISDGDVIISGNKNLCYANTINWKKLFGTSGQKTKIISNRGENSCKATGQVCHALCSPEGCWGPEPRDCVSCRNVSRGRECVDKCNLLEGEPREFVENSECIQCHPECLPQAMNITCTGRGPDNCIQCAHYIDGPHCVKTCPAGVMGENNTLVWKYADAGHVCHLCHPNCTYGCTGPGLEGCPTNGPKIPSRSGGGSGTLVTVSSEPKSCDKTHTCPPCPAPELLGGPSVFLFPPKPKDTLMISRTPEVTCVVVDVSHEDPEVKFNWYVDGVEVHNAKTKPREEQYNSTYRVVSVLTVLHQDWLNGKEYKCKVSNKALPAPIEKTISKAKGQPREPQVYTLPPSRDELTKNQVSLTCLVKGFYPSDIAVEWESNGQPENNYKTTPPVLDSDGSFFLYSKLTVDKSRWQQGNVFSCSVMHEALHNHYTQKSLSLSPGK

Control-MMB (CNTO 360) [2] = biological target: T2, Control-MMB (CNTO 360) (Homo sapiens (Human), UniProt P0DOX5 111-449 = IgG part); test: phage ELISA, luminescence; Control-MMB coated on the wells [panel A]
T2 construct: Described as human IgG1 heavy chain dimer absent the variable and most of the CH1 domains; also called blank mimetibody scaffold protein

[3] = biological target: T1, sEGFR-MMB (dimeric sEGFR mimetibody); test: phage ELISA on coated sEGFR-MMB, chemiluminescence (background typically <200 units)
Streptavidin alone = test: phage ELISA, luminescence; streptavidin-coated wells without receptor [panel C]
Experimental: Confirmatory Phage ELISA. Phage were amplified in XL-1 Blue host cells and purified by precipitation with 6% polyethylene glycol-8000/0.5 M sodium chloride. The precipitated phage were resuspended in phosphate-buffered saline in a volume that was 1/100th the original culture volume. […] The binding reaction was incubated for 1 hr at room temperature, and then bound phage were detected with anti-M13/HRP as above. For ELISAs with biotinylated receptors, streptavidin at 5 μg/ml was coated in the wells overnight at 4° C. […] The wells were rinsed with TBS-T and then blocked with Starting Block. Bound phage were washed and detected with anti-M13/HRP as described above.

[4] = biological target: T1, sEGFR-MMB (dimeric sEGFR mimetibody); test: phage ELISA on coated sEGFR-MMB, chemiluminescence (background typically <200 units); remark: listed apart in the source
biotinylated sEGFR-His6 = biological target: T3, biotinylated sEGFR-His6 (human, UniProt P00533 25-645, biotinylated (reagent and sites not stated)); test: phage ELISA, luminescence; biotinylated receptor captured on streptavidin [panel C]
T3 construct: Captured on streptavidin in the ELISA; also called b-sEGFR-His; b-sEGFR-His6

[5] = biological target: T4, Human extracellular EGFR-His6 (sEGFR-His6) (human, UniProt P00533 25-645); test: phage ELISA, coated sEGFR-His6
T4 construct: Monomer, expressed in HEK293E cells, glycosylated; also called sEGFR-6×His; monomeric sEGFR
Experimental: (§1) The plates were held overnight at room temperature, washed twice with TBST (0.5M Tris Base, 9% NaCl, 0.05% tween, pH 7.6), and loaded with 200 μL per well of Starting Block (Pierce). […] The plates were held at room temperature for 1.5 hours for blocking. Plates were then washed twice with TBST and phage were added. The phage solutions were crude phage supernatant from overnight cultures diluted four-fold with Starting Block. After a one-hour incubation, the plates were washed thrice with TBST and 100 μL of a 1:5000 dilution of phage binding antibody conjugate (a-M13-HRP) was added to the wells. […] After a one-hour incubation the plates were washed five times with TBST, 100 μL of POD (BM Chemiluminescence ELISA substrate; Roche Applied Science) was added, and chemiluminescene recorded.

Control-MMB (CNTO 360) [6] = biological target: T2, Control-MMB (CNTO 360); test: phage ELISA, protein coated at 5 ug per mL
[7] = biological target: T4, Human extracellular EGFR-His6 …; test: phage ELISA, protein coated at 5 ug per mL, chemiluminescence
Experimental: as §1

[8] = biological target: T1, sEGFR-MMB (dimeric sEGFR mimetibody); test: as above
Experimental: as §1

[9] = biological target: T1, sEGFR-MMB (dimeric sEGFR mimetibody); test: phage ELISA on coated sEGFR-MMB, chemiluminescence (background typically <200 units); remark: listed apart in the source
[10] = biological target: T1, sEGFR-MMB (dimeric sEGFR mimetibody); test: as above; remark: listed apart in the source
[11] = biological target: T1, sEGFR-MMB (dimeric sEGFR mimetibody); test: as above; remark: listed apart in the source
Experimental: The protein solution was removed and wells were rinsed twice with Tris-Buffered Saline containing 0.05% Tween-20 (TBS-T) using a plate washer (Embla). The wells were blocked with Starting Block in TBS for 1 hr at room temperature and rinsed twice with TBS-T. An equal volume of phage supernatant and Starting Block in TBS were incubated in the wells for 1 hr at room temperature, and the wells were rinsed five times with TBS-T. Anti-M13/horseradish peroxidase conjugate (Amersham), diluted 1:5000 in Starting Block in TBS, was added into the wells and incubated for 1 hour at room temperature, and then the wells were rinsed five times with TBS-T. Finally, chemiluminescent peroxidase substrate (Roche) was added to the wells, and chemiluminescence was measured on a Tecan plate reader.

| Binder | ELISA signal [4] [units] | ELISA signal [9] [units] | other results |
| --- | --- | --- | --- |
| B1 |  |  | binding result [1]: binds |
| B2 |  |  | binding result (Control-MMB (CNTO 360) [2]): no binding; ELISA signal [3]: 14000 units; binding result (Streptavidin alone): no binding |
| B3 | 6790 |  | binding result (Control-MMB (CNTO 360) [2]): no binding; binding result (Streptavidin alone): no binding; binding result (biotinylated sEGFR-His6): no binding |
| B4 |  |  | binding result [5]: no binding; binding result (Control-MMB (CNTO 360) [6]): no binding; Relative Signal [7]: 6; Relative Signal [8]: 3940 |
| B5 | 3080 |  |  |
| B6 | 9380 |  |  |
| B7 | 1110 |  |  |
| B8 | 1360 |  |  |
| B9 | 3670 |  |  |
| B10 | 13300 |  |  |
| B11 | 1780 |  |  |
| B12 | 1420 |  |  |
| B13 | 5720 |  |  |
| B14 | 1520 |  |  |
| B15 | 1160 |  |  |
| B16 |  | 6380 |  |
| B17 |  | 31500 |  |
| B18 |  | 17100 |  |
| B19 |  | 9110 |  |
| B20 |  | 53200 |  |

| Binder | ELISA signal [4] [units] | ELISA signal [9] [units] | other results |
| --- | --- | --- | --- |
| B21 |  | 4750 |  |
| B22 |  | 30700 |  |
| B23 |  | 19800 |  |
| B24 |  | 37900 |  |
| B25 |  | 35300 |  |
| B26 |  | 13300 |  |
| B27 |  | 3200 |  |
| B28 |  | 22000 |  |
| B29 |  |  | ELISA signal [3]: 8810 units |
| B30 |  |  | ELISA signal [3]: 1290 units |
| B31 |  |  | ELISA signal [3]: 2580 units |
| B32 |  |  | ELISA signal [3]: 3350 units |
| B33 |  |  | ELISA signal [10]: 5420 units |
| B34 |  |  | ELISA signal [10]: 4800 units |
| B35 |  |  | ELISA signal [10]: 9540 units |
| B36 |  |  | ELISA signal [10]: 6620 units |
| B37 |  |  | ELISA signal [10]: 4770 units |
| B38 |  |  | ELISA signal [10]: 4510 units |
| B39 |  |  | ELISA signal [11]: 8660 units |
| B40 |  |  | ELISA signal [11]: 7910 units |
